From the RNAGym collection of RNA variant scans (doi:10.1073/pnas.2313332121)
This sample holds only a part of the variants without activity.

B1: TPR 5TU (parent)
chain: GGAUCUUCUCGAUCUAACAAAAAAGACAAAUCUGCCACAAAGCUUGAGAGCAUCUUCGGAUGCAGAGGCGGCAGCCUUCGGUGGCGCGAUAGCGCCAACGUUCUCAACUAUGACACGCAAAACGCGUGCUCCGUUGAAUGGAGUUUAUCAUG

Variants of: B1
Assay: polymerase ribozyme fitness, log enrichment relative to wild type (log ratio); higher = more active; in vitro selection for triplet polymerase activity
Summary of the method: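 Genotype fitness is the logarithm of its enrichment divided by wild-type enrichment, using inverse-variance-weighted averages of replicates. That logarithm is base 2. Enrichment was measured by Illumina sequencing of input and output libraries from one triplicate in vitro selection round, with frozen incubation at −7 °C, on PCR-built, transcribed mutant libraries of each subunit of a heterodimeric triplet polymerase ribozyme, retaining genotypes with ≥10 input reads and ≥1 read per output.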

Row | Variant | polymerase ribozyme fitness (log ratio)
1 | A28G C75G G88A U139G G141C | -3.97
2 | A16C U31A C32A G92C A97C A98C C103A C116U C125U | ≤ -4.2
3 | A19C G58C C87A C95A A98G | ≤ -4.2
4 | C51U C87U | -1.13
5 | C57U G86U | -1.78
6 | C57A G70U C96U | -2.27
7 | G59C C96U U146A | 0.268
8 | C57A U102G | -1.73
9 | C51U U61A G86C | -4.06
10 | G34A C57A C87U A89U G94U C96A U104A C105G A110U G126U | ≤ -4.2
11 | C99A C114U U135G | -3.68
12 | U31C G86C C93U A98U | -1.96
13 | A73U G133U A147C | ≤ -4.2
14 | A19U G50U C51A C96U A119G | -3.91
15 | A19U C54U U134C A150C | -2.5
16 | C14A A49G C54U G71A U77C G86U G143A | ≤ -4.2
17 | U55C G58U G124A | -0.624
18 | C87A A115C | -4.1
19 | C35A A89U U90G C99U U144G | ≤ -4.2
20 | C10U A17U A41C G50C G84A | ≤ -4.2
21 | G58U G81A A122G | -0.315
22 | G48C A98G U101C U144A A147U | -0.0628
23 | A49U C96G | -0.972
24 | G67C G68A G83A U90A G117A | ≤ -4.2

Row | Variant | polymerase ribozyme fitness (log ratio)
25 | G11A G58U C96U | -1.58
26 | A17U C54A | -1.45
27 | C72U G152A | -2.42
28 | G86U G140U | -3.83
29 | A26C C79A C87A U134C A150U | ≤ -4.2
30 | A41G U53A C85A | -2.72
31 | C14U A28U C96G | ≤ -4.2
32 | A24G A39G G67U G83A C85A U104G C105U G136A | ≤ -4.2
33 | C8G G71A G74A C79U C87A C116A | ≤ -4.2
34 | C35G A52U U53A U56A C93G C96U C105G G152A | ≤ -4.2
35 | A22C G92C U101G C108A A120U | -4.07
36 | G68A C123U | -3.89
37 | A3G C5G U15C G84U C108U A121U | ≤ -4.2
38 | U6A C14G C85G U90G A113U | ≤ -4.2
39 | A19U C87U A121C A147U | 0.743
40 | G50U G83A | -0.347
41 | U7A U33G C79A C116U U144C | ≤ -4.2
42 | A28U A30C U53G A64U C118U | ≤ -4.2
43 | G48C U56C A73G C118A | -2.46
44 | A3G A23C C75A G88A C99G C108U G143C | ≤ -4.2
45 | G81A U127C | -2.04
46 | C43G G50C C85A C96A C108U G124A | ≤ -4.2
47 | C76A A91G | -3.83
48 | G48U A142U | -2.92

Row | Variant | polymerase ribozyme fitness (log ratio)
49 | C43U C95A | -4.15
50 | G42A G48A U102C C103A | ≤ -4.2
51 | G68A A91C A120G A147C | ≤ -4.2
52 | C85U C93G A150G | ≤ -4.2
53 | U55A C63A | -0.431
54 | G58C U61G U146G | -3.76
55 | C38A U55A U135A U146C | -1.06
56 | A24U U45C U101G A106G | 0.694
57 | A26U C75A U82G G92U G100A A107U U144A | ≤ -4.2
58 | A23U U53A C96A C114G G143A U146G | ≤ -4.2
59 | U78C C93U C99A A115C | -4.13
60 | A113U A120G | -1.73
61 | A49G U55A C79U G92U C95A G140A | ≤ -4.2
62 | U4A C36A G48C G86A | ≤ -4.2
63 | C79U G84A | -3.04
64 | A73G C95U | -0.166
65 | G92A A115C | -3.48
66 | C54U G58A G92A U145A | -3.35
67 | C57A A91G | -2.76
68 | G92C U104C | -1.35
69 | A20G A40C C72U G92A | -4.04
70 | G68C C93G | ≤ -4.2
71 | A47U G50C | -3.22
72 | G48U C149G | ≤ -4.2

Row | Variant | polymerase ribozyme fitness (log ratio)
73 | U31C C69U G86U C96U | -3.55
74 | A41C G46A U90A A150G | ≤ -4.2
75 | G86U C149A | ≤ -4.2
76 | A39U G81A C99U U104C G117A | -3.48
77 | G88A A110G | ≤ -4.2
78 | A20U G46A C76A C87G G94C C105G U144A | ≤ -4.2
79 | A3U U53A | -1.77
80 | A89U U102G A122C | -3.7
81 | U31A G59C C75U A91U U109G G112A | ≤ -4.2
82 | C57G A89U A98U | -1.18
83 | A22C A47C C51G A64G C72A C95U A107G A113U U135A | ≤ -4.2
84 | A20G G25A A40U A47G G48C C85A A142G | ≤ -4.2
85 | G74A U77G G83A | ≤ -4.2
86 | G11C G62A C87G | ≤ -4.2
87 | U9A C32G C54A G86C U109G G136A | ≤ -4.2
88 | G88A G94A C99G C103G U104A A107G | ≤ -4.2
89 | A49C U77G G94C | ≤ -4.2
90 | C10U G42C C69A C95G A142G A150G | ≤ -4.2
91 | G62U G124C | -1.42
92 | U6G C96U | -0.759
93 | A16U G25C A52C C96U | -4.11
94 | G74C A97U C132A G141A G143C | ≤ -4.2
95 | A40C A89G A150G | -3.25
96 | A26U G68C G86U C103G A115C | ≤ -4.2

Row | Variant | polymerase ribozyme fitness (log ratio)
97 | A37C G59A G81A C96A | -2.74
98 | C103G A120U | -1.5
99 | A26C C57G G80A | -4.09
100 | A52C G84A | -1.32
101 | C14G A73G C79G A98G G143C | ≤ -4.2
102 | G68U C85U U144A | -4.15
103 | C5U C51A | -0.999
104 | U4G U31G G50C G68A C75A G86U C95U U101A | ≤ -4.2
105 | C51U C95G C105U U145A | -1.72
106 | G58C A60G | 0.746
107 | A23G C72U | -3.74
108 | A23G G59U C95U A110G | -3.86
109 | G48U U53A C85U | -1.94
110 | C57G U77C G84A U134A | ≤ -4.2
111 | G83A U102C C103G U145G | ≤ -4.2
112 | C14A C27G C32G U77C G84A | ≤ -4.2
113 | G86C C99G U109G C129A U148G | ≤ -4.2
114 | A40C G84A U90G G100C | ≤ -4.2
115 | A119G | -0.045
116 | G34U G67A C76U C85A | ≤ -4.2
117 | C87U A137C | -3.99
118 | A89U G92C G94U G141A | -3.94
119 | C75U G94C A122G U145A | -3.35
120 | A16U G83C C99A | -3.97

Row | Variant | polymerase ribozyme fitness (log ratio)
121 | A40U G62A C131G G136A | -3.43
122 | C36U C95G C108A | -3.89
123 | A12G C99G | -0.551
124 | U55A G94C | -0.443
125 | A30C C79A G88A A107G C116G A137G U144C | ≤ -4.2
126 | C27U C43A C75U C96U C105A | ≤ -4.2
127 | A16U C27U A29C A49G C95U C105G U146A | ≤ -4.2
128 | A30G G50C C51A G84A C87G G100U A121G | ≤ -4.2
129 | U33G U53A G58A | -3.78
130 | A39C C87U U101G G117U | -3.2
131 | A29U A49G C54G G59U A91U C96A G117U A142U | ≤ -4.2
132 | C57G C116A | 1.35
133 | C99G C114U | -2.38
134 | U7G U15A G58U G70C A91G | ≤ -4.2
135 | A49U A142C | -1.43
136 | A20G C43U G62U A91G | ≤ -4.2
137 | A3U A21U G50U G58A U77A G100U A137G | ≤ -4.2
138 | C85G A122U C123A | -2.3
139 | A21U A29U C85U G141C | ≤ -4.2
140 | C32U U53A A91C G94A C105G A121U U151C | ≤ -4.2
141 | U7C G48C C85U | -3.27
142 | A17U A24C A26G C57U G86A | ≤ -4.2
143 | A23C A29C C38U C57G A64C G84U | ≤ -4.2
144 | C51U C85G A115C | -1.9

Row | Variant | polymerase ribozyme fitness (log ratio)
145 | U56A G92C U139A G140U | -3.76
146 | C14G A19U C87G U145A | ≤ -4.2
147 | C5U G46U C85G | -2.05
148 | A22U G25A A41C A91G G94C | ≤ -4.2
149 | G11U G86C | -3.55
150 | G46C A49C U56A C57U G62A C63A C69U G86C C99U G141C U145G C149U A150U | ≤ -4.2
151 | C43G C105A C123G U148A | ≤ -4.2
152 | U33A C43G G50U G84A A89U | ≤ -4.2
153 | A22C G34C U55G A91C G92U | ≤ -4.2
154 | A91C A120G G126A | ≤ -4.2
155 | A49C U101G G141U | -1.78
156 | A17C A24G A39U U56A C103G G136U | ≤ -4.2
157 | A28C G80C C87G | ≤ -4.2
158 | A3U C8A A17G U56A G59A C85A A120G | ≤ -4.2
159 | A22U A41G G81A C87U C99U A119G G152A | -2.3
160 | A29G G58C A60C G71A C129G | ≤ -4.2
161 | A49G C114U U144A | -4.06
162 | A21G C85U C96U C105U A106C A138G | ≤ -4.2
163 | U9A C93A | -3.87
164 | A21U A119U G124U | -0.526
165 | A16U G92U | -2.29
166 | A40G C43G A64C | ≤ -4.2
167 | U53A C54A G65U G86U A91U | ≤ -4.2
